Values quoted from earlier work as cited in paper PMC8061042.

Molecular target: MS1
Sequence (main, as listed by the source): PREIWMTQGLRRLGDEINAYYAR

Kd: 1.9 nM
Substance: MCL-1 (from UniProt Q07820)
